Test results: the supplement of paper PMC12042874
± gives the uncertainty stated by the source.

Assay: amyloid nucleation score (Sup35N fusion, yeast selection) (log enrichment); library NNK3; higher = more nucleation; inactive = no reads after selection
How it was run: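 Plasmid inserts were Illumina-sequenced at input and output from psi-negative yeast expressing Sup35N fused to peptides of 20 random codons. The yeast were induced with 100 μM copper sulfate for 24 hours and grown 7 days at 30°C on medium lacking adenine and uracil, and sequences with under 100 input reads were excluded. Nucleation score is the DiMSum log enrichment of output over input reads, centred on the mode score of non-aggregating sequences.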

Substance	amyloid nucleation score
ILLVWNSMLYYTLDTCVNCC	inactive
ILQKSDVSII	inactive
ILRLSPTFGRQSYSVKVGLK	inactive
ILRNMDGRRNSVVRDVVRVK	inactive
ILTNTIRGKVDSLRLFKTSW	inactive
ILTWRRFVFFLDWVDFTSQG	inactive
ILVDWFDCDQCKQTFCPGLV	inactive
ILYGKVTKKRGSKALSVRVM	inactive
ILYLITFAELCWKSRHWHLG	inactive
IMSRCISTHLG	inactive
INFCIINNTMV	1.75 ± 0.071
INKSWGVFP	0.687 ± 0.18
INLNYDLKFGYVYHMLFT	inactive
INNASRRPCNMHVDVYRLLR	inactive
INPRSYADLYYIRFNHWWLL	inactive
INQRLYEPFGRWVWTRYIAR	inactive
INWFGVRYRYDSSNYFMYQL	0.986 ± 0.21
INWTRLRSRSEVWDTGRVWT	inactive
INYCALARFLMNECLCPICT	inactive
IPCMG	inactive
IPRWKFN	-0.57 ± 1.1
IPTSQAEFCCFSGAKHFQIV	inactive
IPVLLPSMCINNKFMVSSWN	1.39 ± 0.1
IPYSTHRINSILISLSWFCV	0.691 ± 0.2
IQKLSFYTVCFMYDWLLTFK	inactive
IQLAYIPEMALPTSWARVSG	inactive
IQLKDKNGDL	inactive

Substance	amyloid nucleation score
IQNIVRLDSVVSMVFGRLVI	inactive
IQQGKVYKGTLLLTAYMTSE	1.11 ± 0.096
IRCNRYVSL	inactive
IRGEFLQQPFIVDRNHVRWL	inactive
IRGSHGRWYSTHNCLTCDME	inactive
IRGVECNRLGIYLLCVTHSM	-0.624 ± 0.8
IRLSQNWGSYVCSNTLNSER	inactive
IRLVPWFW	inactive
IRMYNSSERFYSPDKRHVPK	inactive
IRNIRFVFLILIDWSSRNSV	inactive
IRRLSSVCMGCSWYL	inactive
IRRSLAR	inactive
IRSILW	inactive
IRSPWTSRAVCGGADV	inactive
IRSYAF	inactive
IRTNAGSLYFYWGTLFRISH	inactive
IRTTSPHHDSLSNEGVIDML	inactive
IRVTRIRAKVTLTTNVMWVP	0.463 ± 0.29
IRYLYLV	inactive
ISCALHYDSVRKRYVVSGQL	inactive
ISDRFQAESCSRCSLVSSMF	inactive
ISEVESWPFHCGYGNI	0.467 ± 0.28
ISILDLSSTF	inactive
ISINYVPDMFDLRDYFTVIL	inactive
ISIPLLIMLPELGTASMVNG	inactive
ISKSHGYLYSNWKTCFSELS	inactive
ISLYNRNIYCRLTFMLRVIR	inactive

Substance	amyloid nucleation score
ISMHPERQVMMRLPCRMCCL	inactive
ISMSNHWLLLVICNDEWDLP	-0.06 ± 0.7
ISPAESFPSSPERIHIVD	-0.789 ± 0.9
ISRLLPPWNNRHIFSFVYLS	inactive
ISRNRQRSVIPGTTKLCMWV	inactive
ISRSGNLLGYKDLLVATKSG	inactive
ISSAYPRNICRVCGPRTR	inactive
ISTFVLNDAMLRRWET	inactive
ISVIYLS	inactive
ISYTTSNYITLVYKLTNRAY	0.911 ± 0.13
ITGFLFRVVW	0.829 ± 0.13
ITILT	inactive
ITLGACS	inactive
ITLLCLFNATL	1.98 ± 0.085
ITSVTLITNKSKSGIGKVGS	inactive
ITWSFTVDMDALCCGPWNVR	3.18 ± 0.078
ITWTRGDVGQTHNSAMLSHT	inactive
ITYSMLVVVQNLA	1.75 ± 0.1
IVADAAWNAIGVSGMDSTGT	inactive
IVALQRSFSNNT	inactive
IVFWRSFHKNA	inactive
IVGDGDGQTCCVSRSLCGMV	inactive
IVGIKVDIYNTSGCS	1.7 ± 0.12
IVGLDWKNATVRDCRRNFIN	inactive
IVHNYFSFCHYNRGRVGLFI	2.64 ± 0.074
IVKCLYVVCV	inactive
